Results on twelve molecules are retold here after patent US20160272683A1 (Novo Nordisk, published 2016).

Numbered stars: 1 amine (or outer) side, 2 acyl side, 3 side chain; on linkers, the order of the positions; unused ones are H or OH. Side chains are listed from the residue outwards. Ends that are not written are not given here. * marks the point of attachment. C20 diacid = O=C(O)CCCCCCCCCCCCCCCCCCC(=O)*; C18 diacid = O=C(O)CCCCCCCCCCCCCCCCC(=O)*; C16 diacid = O=C(O)CCCCCCCCCCCCCCC(=O)*; γGlu = O=C(O)[C@H](CCC(=O)[*:2])N[*:1]; C14 diacid = O=C(O)CCCCCCCCCCCCC(=O)*; AEEA = NCCOCCOCC(=O)O

Experiment [1] concerns the target rat amylin receptor (rat calcitonin receptor with rat RAMP 3) (rat) (UniProt P32214). As to the kind of experiment: SPA competition vs 125I-rat amylin, membranes with rat CTR + rat RAMP3 (Assay VI).
For experiment [2], the target named is rat calcitonin receptor (rat) (UniProt P32214). As to the kind of experiment: SPA competition vs 125I-calcitonin, membranes with rat CTR (Assay VIII).
The target in experiment [3] is T1, human calcitonin receptor (human, UniProt P30988 25-474).
T1 construct: whole, on cells; Assay VII: membranes on SPA beads; also called hCT-R; hCTR
T1 sequence (looked up): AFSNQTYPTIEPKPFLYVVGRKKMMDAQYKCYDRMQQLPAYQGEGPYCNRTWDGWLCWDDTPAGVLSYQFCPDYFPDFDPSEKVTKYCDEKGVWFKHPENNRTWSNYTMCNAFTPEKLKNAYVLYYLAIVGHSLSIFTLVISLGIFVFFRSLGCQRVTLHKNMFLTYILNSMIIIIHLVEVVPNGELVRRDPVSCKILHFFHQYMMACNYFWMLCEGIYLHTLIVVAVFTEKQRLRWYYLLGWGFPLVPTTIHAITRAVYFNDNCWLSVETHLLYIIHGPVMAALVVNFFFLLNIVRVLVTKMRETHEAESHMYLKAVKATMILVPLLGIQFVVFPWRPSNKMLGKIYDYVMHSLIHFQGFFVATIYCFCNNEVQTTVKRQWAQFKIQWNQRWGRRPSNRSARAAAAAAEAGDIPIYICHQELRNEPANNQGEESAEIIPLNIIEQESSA
Nature of the experiment: SPA competition vs 125I-calcitonin, membranes with human CTR (Assay VII). In short, it runs like this:
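SPA competition on membranes from BHK tk'ts 13 cells stably expressing human calcitonin receptor plus CRE-luciferase reporter; membranes 35 ng/μL final with 0.05 mg/well beads.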

The target in experiment [4] is T2, human amylin receptor (amylin 3(a) receptor: human calcitonin receptor with RAMP-3) (human, UniProt P30988 25-474; O60896 24-148, limits assumed).
T2 construct: whole, on cells; Assay V: membranes of the Amylin 3(a)/CRE-luc BHK cells on SPA beads; also called hAmylin-R
T2 sequence (looked up) 1: T1 sequence (looked up)
T2 sequence (looked up) 2: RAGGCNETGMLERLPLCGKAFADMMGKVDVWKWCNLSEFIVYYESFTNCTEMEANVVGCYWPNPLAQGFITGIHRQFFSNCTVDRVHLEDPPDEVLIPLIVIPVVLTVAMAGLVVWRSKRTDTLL
As to the kind of experiment: SPA competition vs 125I-rat amylin, membranes with human CTR + RAMP-3 (Assay V).

“[N-terminal(C20 diacid-gGlu-2xOEG), des1, 4G, 9V, 15Q, 21Q, 23Y, 30S, 31G, 32T, 33Y]mimylin (peptide)”: in experiment [1], the half-maximal inhibitory concentration (IC50) stood at 0.029 nM.

B1: [N-terminal(C20 diacid-gGlu), des1, 4G, 15Q, 21Q, 23Y, 30S, 31Q, 32T, 33Y]mimylin (peptide)
peptide: {C20 diacid-γGlu}-ASGLSTAALGRLSQELHELQTYPRTETGSQTY-NH2
SMILES: CC(C)C[C@H](NC(=O)CNC(=O)[C@H](CO)NC(=O)[C@H](C)NC(=O)CC[C@H](NC(=O)CCCCCCCCCCCCCCCCCCC(=O)O)C(=O)O)C(=O)N[C@@H](CO)C(=O)N[C@H](C(=O)N[C@@H](C)C(=O)N[C@@H](C)C(=O)N[C@@H](CC(C)C)C(=O)NCC(=O)N[C@@H](CCCNC(=N)N)C(=O)N[C@@H](CC(C)C)C(=O)N[C@@H](CO)C(=O)N[C@@H](CCC(N)=O)C(=O)N[C@@H](CCC(=O)O)C(=O)N[C@@H](CC(C)C)C(=O)N[C@@H](Cc1c[nH]cn1)C(=O)N[C@@H](CCC(=O)O)C(=O)N[C@@H](CC(C)C)C(=O)N[C@@H](CCC(N)=O)C(=O)N[C@H](C(=O)N[C@@H](Cc1ccc(O)cc1)C(=O)N1CCC[C@H]1C(=O)N[C@@H](CCCNC(=N)N)C(=O)N[C@H](C(=O)N[C@@H](CCC(=O)O)C(=O)N[C@H](C(=O)NCC(=O)N[C@@H](CO)C(=O)N[C@@H](CCC(N)=O)C(=O)N[C@H](C(=O)N[C@@H](Cc1ccc(O)cc1)C(N)=O)[C@@H](C)O)[C@@H](C)O)[C@@H](C)O)[C@@H](C)O)[C@@H](C)O
As to B1, the results for the IC50 in experiment [2] and in experiment [1] were 0.012 nM and 0.078 nM, respectively.

B2: [N-terminal(C20 diacid-gGlu), 1A, 23Y, 30S, 31G]mimylin (peptide)
peptide: {C20 diacid-γGlu}-AASELSTAALGRLSAELHELATYPRTETGSGSP-NH2
SMILES: CC(C)C[C@H](NC(=O)[C@H](C)NC(=O)[C@H](C)NC(=O)[C@@H](NC(=O)[C@H](CO)NC(=O)[C@H](CC(C)C)NC(=O)[C@H](CCC(=O)O)NC(=O)[C@H](CO)NC(=O)[C@H](C)NC(=O)[C@H](C)NC(=O)CC[C@H](NC(=O)CCCCCCCCCCCCCCCCCCC(=O)O)C(=O)O)[C@@H](C)O)C(=O)NCC(=O)N[C@@H](CCCNC(=N)N)C(=O)N[C@@H](CC(C)C)C(=O)N[C@@H](CO)C(=O)N[C@@H](C)C(=O)N[C@@H](CCC(=O)O)C(=O)N[C@@H](CC(C)C)C(=O)N[C@@H](Cc1c[nH]cn1)C(=O)N[C@@H](CCC(=O)O)C(=O)N[C@@H](CC(C)C)C(=O)N[C@@H](C)C(=O)N[C@H](C(=O)N[C@@H](Cc1ccc(O)cc1)C(=O)N1CCC[C@H]1C(=O)N[C@@H](CCCNC(=N)N)C(=O)N[C@H](C(=O)N[C@@H](CCC(=O)O)C(=O)N[C@H](C(=O)NCC(=O)N[C@@H](CO)C(=O)NCC(=O)N[C@@H](CO)C(=O)N1CCC[C@H]1C(N)=O)[C@@H](C)O)[C@@H](C)O)[C@@H](C)O
notes: mimylin derivative; also called Ex. #57; 57
B2: the IC50 is 0.108 nM in experiment [3] and 0.124 nM in experiment [4].

B3: [N-terminal(C20 diacid-gGlu), des1, 9T, 21S, 23Y, 30S, 31G, 33Y]mimylin (peptide)
peptide: {C20 diacid-γGlu}-ASELSTATLGRLSAELHELSTYPRTETGSGSY-NH2
SMILES: CC(C)C[C@H](NC(=O)[C@H](CCCNC(=N)N)NC(=O)CNC(=O)[C@H](CC(C)C)NC(=O)[C@@H](NC(=O)[C@H](C)NC(=O)[C@@H](NC(=O)[C@H](CO)NC(=O)[C@H](CC(C)C)NC(=O)[C@H](CCC(=O)O)NC(=O)[C@H](CO)NC(=O)[C@H](C)NC(=O)CC[C@H](NC(=O)CCCCCCCCCCCCCCCCCCC(=O)O)C(=O)O)[C@@H](C)O)[C@@H](C)O)C(=O)N[C@@H](CO)C(=O)N[C@@H](C)C(=O)N[C@@H](CCC(=O)O)C(=O)N[C@@H](CC(C)C)C(=O)N[C@@H](Cc1c[nH]cn1)C(=O)N[C@@H](CCC(=O)O)C(=O)N[C@@H](CC(C)C)C(=O)N[C@@H](CO)C(=O)N[C@H](C(=O)N[C@@H](Cc1ccc(O)cc1)C(=O)N1CCC[C@H]1C(=O)N[C@@H](CCCNC(=N)N)C(=O)N[C@H](C(=O)N[C@@H](CCC(=O)O)C(=O)N[C@H](C(=O)NCC(=O)N[C@@H](CO)C(=O)NCC(=O)N[C@@H](CO)C(=O)N[C@@H](Cc1ccc(O)cc1)C(N)=O)[C@@H](C)O)[C@@H](C)O)[C@@H](C)O
Turning to B3, the IC50 came out at 0.069 nM in experiment [2] and 0.045 nM in experiment [1].

B4: [N-terminal(C14 diacid), des1, 30S, 31G]mimylin (peptide)
peptide: {C14 diacid}-ASELSTAALGRLSAELHELATLPRTETGSGSP-NH2
notes: mimylin derivative; des1 = residue 1 deleted; also called Ex. #51; 51
On to B4, for which the IC50 was 0.14 nM in experiment [3] and 0.773 nM in experiment [4].

B5: [N-terminal(C16 diacid), des1, 30S, 31G]mimylin (peptide)
peptide: {C16 diacid}-ASELSTAALGRLSAELHELATLPRTETGSGSP-NH2
notes: mimylin derivative; des1 = residue 1 deleted; also called Ex. #49; 49
Take B5: the IC50 in experiment [3] came to 0.011 nM; in experiment [4] it was 0.015 nM.

B6: [N-terminal(C14 diacid), des1, 30S, 31G]mimylin (peptide)
peptide: {C14 diacid}-ASELSTAALGRLSAELHELATLPRTETGSGSP-NH2
Take B6: the IC50 in experiment [2] is 0.123 nM.

B7: [N-terminal(C18 diacid), des1, 30S, 31G]mimylin (peptide)
peptide: {C18 diacid}-ASELSTAALGRLSAELHELATLPRTETGSGSP-NH2
notes: mimylin derivative; des1 = residue 1 deleted; also called Ex. #48; 48
Regarding B7, the IC50 in experiment [3] is 0.034 nM; in experiment [4], 0.077 nM.

B8: [N-terminal(C14 diacid-gGlu), des1, 30S, 31G]mimylin (peptide)
peptide: {C14 diacid-γGlu}-ASELSTAALGRLSAELHELATLPRTETGSGSP-NH2
notes: mimylin derivative; des1 = residue 1 deleted; also called Ex. #50; 50
On to B8, for which the IC50 in experiment [3] is 0.023 nM; in experiment [4], 0.054 nM.

B9: [N-terminal(C20 diacid-gGlu-OEG), des1, 30S, 31G]mimylin (peptide)
peptide: {C20 diacid-γGlu-AEEA}-ASELSTAALGRLSAELHELATLPRTETGSGSP-NH2
As to B9, the results for the IC50 in experiment [2] and in experiment [1] were 0.044 nM and 0.146 nM, respectively.

B10: [des1, 4K(C20 diacid-gGlu), 30S, 31G]mimylin (peptide)
peptide: ASK([γGlu-C20 diacid])LSTAALGRLSAELHELATLPRTETGSGSP-NH2
modifications: N-terminus assumed
SMILES: CC(C)C[C@H](NC(=O)[C@H](C)NC(=O)[C@H](C)NC(=O)[C@@H](NC(=O)[C@H](CO)NC(=O)[C@H](CC(C)C)NC(=O)[C@H](CCCCNC(=O)CC[C@H](NC(=O)CCCCCCCCCCCCCCCCCCC(=O)O)C(=O)O)NC(=O)[C@H](CO)NC(=O)[C@H](C)N)[C@@H](C)O)C(=O)NCC(=O)N[C@@H](CCCNC(=N)N)C(=O)N[C@@H](CC(C)C)C(=O)N[C@@H](CO)C(=O)N[C@@H](C)C(=O)N[C@@H](CCC(=O)O)C(=O)N[C@@H](CC(C)C)C(=O)N[C@@H](Cc1c[nH]cn1)C(=O)N[C@@H](CCC(=O)O)C(=O)N[C@@H](CC(C)C)C(=O)N[C@@H](C)C(=O)N[C@H](C(=O)N[C@@H](CC(C)C)C(=O)N1CCC[C@H]1C(=O)N[C@@H](CCCNC(=N)N)C(=O)N[C@H](C(=O)N[C@@H](CCC(=O)O)C(=O)N[C@H](C(=O)NCC(=O)N[C@@H](CO)C(=O)NCC(=O)N[C@@H](CO)C(=O)N1CCC[C@H]1C(N)=O)[C@@H](C)O)[C@@H](C)O)[C@@H](C)O
Take B10: the IC50 in experiment [2] worked out at 0.114 nM.

B11: [N-terminal(C18 diacid-gGlu), des1, 4G, 15Q, 21Q, 23Y, 30S, 31G, 32T, 33Y]mimylin (peptide)
peptide: {C18 diacid-γGlu}-ASGLSTAALGRLSQELHELQTYPRTETGSGTY-NH2
SMILES: CC(C)C[C@H](NC(=O)CNC(=O)[C@H](CO)NC(=O)[C@H](C)NC(=O)CC[C@H](NC(=O)CCCCCCCCCCCCCCCCC(=O)O)C(=O)O)C(=O)N[C@@H](CO)C(=O)N[C@H](C(=O)N[C@@H](C)C(=O)N[C@@H](C)C(=O)N[C@@H](CC(C)C)C(=O)NCC(=O)N[C@@H](CCCNC(=N)N)C(=O)N[C@@H](CC(C)C)C(=O)N[C@@H](CO)C(=O)N[C@@H](CCC(N)=O)C(=O)N[C@@H](CCC(=O)O)C(=O)N[C@@H](CC(C)C)C(=O)N[C@@H](Cc1c[nH]cn1)C(=O)N[C@@H](CCC(=O)O)C(=O)N[C@@H](CC(C)C)C(=O)N[C@@H](CCC(N)=O)C(=O)N[C@H](C(=O)N[C@@H](Cc1ccc(O)cc1)C(=O)N1CCC[C@H]1C(=O)N[C@@H](CCCNC(=N)N)C(=O)N[C@H](C(=O)N[C@@H](CCC(=O)O)C(=O)N[C@H](C(=O)NCC(=O)N[C@@H](CO)C(=O)NCC(=O)N[C@H](C(=O)N[C@@H](Cc1ccc(O)cc1)C(N)=O)[C@@H](C)O)[C@@H](C)O)[C@@H](C)O)[C@@H](C)O)[C@@H](C)O
In the case of B11, the IC50 in experiment [2] and in experiment [1] was 0.013 nM in each case.
